Assays:
[1] = molecular target: BTB/POZ domain-containing protein 2. BTBD2 (human) (UniProt Q9BX70); test: Flag co-IP, MudPIT MS, DMSO
[2] = molecular target: Cullin 1 (human) (UniProt Q13616); test: Flag co-IP, MudPIT MS, DMSO
[3] = molecular target: Kelch repeat and BTB domain-containing protein 7, KBTB7 (human) (UniProt Q8WVZ9); test: Flag co-IP, MudPIT MS, DMSO
[4] = molecular target: RING finger protein 12. RLIM (human) (UniProt Q9NVW2); test: Flag co-IP, MudPIT MS, DMSO
[5] = molecular target: Ubiquitin conjugation factor E4 B, UBE4B (Ufd2ortholog) (human) (UniProt O95155); test: Flag co-IP, MudPIT MS, DMSO
[6] = molecular target: Cullin 1 (human) (UniProt Q13616); test: Flag co-IP, MudPIT MS, MG132
[7] = molecular target: E3 ubiquitin-protein ligase1-HUWE1 (human) (UniProt Q7Z6Z7); test: Flag co-IP, MudPIT MS, MG132
[8] = molecular target: E6AP ubiquitin-protein ligase, UBE3A (human) (UniProt Q05086); test: Flag co-IP, MudPIT MS, MG132
[9] = molecular target: UBR2 (human) (UniProt Q8IWV8); test: Flag co-IP, MudPIT MS, MG132
[10] = molecular target: gp78 (human) (UniProt Q9UKV5); test: Flag co-IP, MudPIT MS, MG132
[11] = molecular target: Bromodomain and WD-repeat domain-containing protein 1. WDR9 (human) (UniProt Q9NSI6); test: Flag co-IP, MudPIT MS, DMSO
[12] = molecular target: Bromodomain and WD-repeat domain-containing protein 2, WDR 1 I (human) (UniProt Q9BZH6); test: Flag co-IP, MudPIT MS, DMSO
[13] = molecular target: Bromodomain and WD-repeat domain-containing protein 3, BRWD3 (human) (UniProt Q6RI45); test: Flag co-IP, MudPIT MS, DMSO
[14] = molecular target: Cullin 4A (human) (UniProt Q13619); test: Flag co-IP, MudPIT MS, DMSO
[15] = molecular target: Cullin 4B (human) (UniProt Q13620); test: Flag co-IP, MudPIT MS, DMSO
[16] = molecular target: Elongin B (human) (UniProt Q15370); test: Flag co-IP, MudPIT MS, DMSO
[17] = molecular target: Kelch domain-containing protein 2, KLDC2 (human) (UniProt Q9Y2U9); test: Flag co-IP, MudPIT MS, DMSO
[18] = molecular target: SKP1 (human) (UniProt P63208); test: Flag co-IP, MudPIT MS, DMSO
[19] = molecular target: BTB and Kelch domain-containing protein 2, KLHL13 (human) (UniProt Q9P2N7); test: Flag co-IP, MudPIT MS, MG132
[20] = molecular target: Elongin B (human) (UniProt Q15370); test: Flag co-IP, MudPIT MS, MG132
[21] = molecular target: Elongin C (human) (UniProt Q15369); test: Flag co-IP, MudPIT MS, MG132
[22] = molecular target: Kelch-like protein 22. KLEIL22 (human) (UniProt Q53GT1); test: Flag co-IP, MudPIT MS, MG132
[23] = molecular target: Elongin C (human) (UniProt Q15369); test: Flag co-IP, MudPIT MS, DMSO
[24] = molecular target: Galectin-3 binding protein. LG3BP (human) (UniProt Q08380); test: Flag co-IP, MudPIT MS, DMSO
[25] = molecular target: WD repeat protein Anti homolog. WDR68 (human) (UniProt P61962); test: Flag co-IP, MudPIT MS, DMSO
[26] = molecular target: T1, endogenous UFD1 (human) (UniProt Q92890); test: Flag co-IP, 293 cells, MudPIT MS
T1 sequence (looked up): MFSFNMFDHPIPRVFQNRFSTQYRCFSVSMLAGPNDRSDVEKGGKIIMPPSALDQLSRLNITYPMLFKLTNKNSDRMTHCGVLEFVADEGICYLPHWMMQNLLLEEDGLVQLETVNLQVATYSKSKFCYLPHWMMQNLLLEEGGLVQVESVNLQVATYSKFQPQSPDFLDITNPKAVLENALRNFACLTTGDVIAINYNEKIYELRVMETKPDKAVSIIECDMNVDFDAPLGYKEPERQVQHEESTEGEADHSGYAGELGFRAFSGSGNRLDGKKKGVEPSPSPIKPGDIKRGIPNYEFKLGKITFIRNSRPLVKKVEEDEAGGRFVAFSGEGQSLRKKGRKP

BTB and Kelch domain-containing protein 2, KLHL13 (human), sequence (Q9P2N7 whole entry, the tested form may be a part): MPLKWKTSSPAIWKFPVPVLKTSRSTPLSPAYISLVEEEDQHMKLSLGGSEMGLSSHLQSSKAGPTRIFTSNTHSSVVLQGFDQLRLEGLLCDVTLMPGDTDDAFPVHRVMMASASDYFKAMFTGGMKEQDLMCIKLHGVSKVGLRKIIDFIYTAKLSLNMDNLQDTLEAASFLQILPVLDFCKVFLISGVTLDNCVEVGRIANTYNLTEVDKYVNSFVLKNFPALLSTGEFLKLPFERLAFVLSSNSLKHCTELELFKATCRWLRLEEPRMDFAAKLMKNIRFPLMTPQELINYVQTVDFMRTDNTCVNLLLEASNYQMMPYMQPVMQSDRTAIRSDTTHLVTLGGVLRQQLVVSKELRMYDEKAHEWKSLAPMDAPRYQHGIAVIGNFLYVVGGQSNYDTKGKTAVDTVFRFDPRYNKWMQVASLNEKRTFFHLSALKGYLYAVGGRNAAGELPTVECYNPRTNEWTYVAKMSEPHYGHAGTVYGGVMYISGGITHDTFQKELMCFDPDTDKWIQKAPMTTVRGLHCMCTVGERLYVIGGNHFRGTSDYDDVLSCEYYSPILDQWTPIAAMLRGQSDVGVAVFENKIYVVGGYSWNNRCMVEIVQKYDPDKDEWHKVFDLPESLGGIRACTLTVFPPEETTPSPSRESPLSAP
E6AP ubiquitin-protein ligase, UBE3A (human), sequence (Q05086 whole entry): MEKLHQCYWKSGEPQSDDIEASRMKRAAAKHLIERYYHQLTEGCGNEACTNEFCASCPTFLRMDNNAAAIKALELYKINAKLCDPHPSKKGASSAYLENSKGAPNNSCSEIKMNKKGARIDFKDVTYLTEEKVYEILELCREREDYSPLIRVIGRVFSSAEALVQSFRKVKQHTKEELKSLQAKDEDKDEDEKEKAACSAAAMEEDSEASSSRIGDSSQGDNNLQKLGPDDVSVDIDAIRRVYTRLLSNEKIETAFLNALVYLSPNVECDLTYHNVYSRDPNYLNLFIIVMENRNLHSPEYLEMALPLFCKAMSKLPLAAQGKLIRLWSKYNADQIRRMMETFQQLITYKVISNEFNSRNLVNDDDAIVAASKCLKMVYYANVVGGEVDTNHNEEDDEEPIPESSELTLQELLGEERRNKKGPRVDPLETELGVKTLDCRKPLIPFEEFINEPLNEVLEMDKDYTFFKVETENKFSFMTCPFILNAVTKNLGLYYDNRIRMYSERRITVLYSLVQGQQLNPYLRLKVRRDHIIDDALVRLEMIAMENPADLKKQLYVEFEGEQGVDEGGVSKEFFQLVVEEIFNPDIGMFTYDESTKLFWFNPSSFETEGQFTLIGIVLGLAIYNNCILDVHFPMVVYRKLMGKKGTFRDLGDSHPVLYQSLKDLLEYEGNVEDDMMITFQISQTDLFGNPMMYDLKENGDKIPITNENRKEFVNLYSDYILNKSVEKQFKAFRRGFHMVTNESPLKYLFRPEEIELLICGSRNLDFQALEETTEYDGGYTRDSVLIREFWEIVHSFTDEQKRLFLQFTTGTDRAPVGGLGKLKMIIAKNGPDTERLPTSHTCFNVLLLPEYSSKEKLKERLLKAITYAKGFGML
SKP1 (human), sequence (P63208 2-163 limits assumed): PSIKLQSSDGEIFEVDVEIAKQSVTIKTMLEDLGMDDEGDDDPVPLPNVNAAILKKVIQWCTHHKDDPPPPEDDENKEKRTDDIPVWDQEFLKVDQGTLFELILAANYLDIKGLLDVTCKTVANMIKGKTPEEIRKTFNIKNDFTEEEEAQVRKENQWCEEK
Bromodomain and WD-repeat domain-containing protein 1. WDR9 (human), sequence (Q9NSI6 other isoform, or with tags, fused parts or gaps limits assumed): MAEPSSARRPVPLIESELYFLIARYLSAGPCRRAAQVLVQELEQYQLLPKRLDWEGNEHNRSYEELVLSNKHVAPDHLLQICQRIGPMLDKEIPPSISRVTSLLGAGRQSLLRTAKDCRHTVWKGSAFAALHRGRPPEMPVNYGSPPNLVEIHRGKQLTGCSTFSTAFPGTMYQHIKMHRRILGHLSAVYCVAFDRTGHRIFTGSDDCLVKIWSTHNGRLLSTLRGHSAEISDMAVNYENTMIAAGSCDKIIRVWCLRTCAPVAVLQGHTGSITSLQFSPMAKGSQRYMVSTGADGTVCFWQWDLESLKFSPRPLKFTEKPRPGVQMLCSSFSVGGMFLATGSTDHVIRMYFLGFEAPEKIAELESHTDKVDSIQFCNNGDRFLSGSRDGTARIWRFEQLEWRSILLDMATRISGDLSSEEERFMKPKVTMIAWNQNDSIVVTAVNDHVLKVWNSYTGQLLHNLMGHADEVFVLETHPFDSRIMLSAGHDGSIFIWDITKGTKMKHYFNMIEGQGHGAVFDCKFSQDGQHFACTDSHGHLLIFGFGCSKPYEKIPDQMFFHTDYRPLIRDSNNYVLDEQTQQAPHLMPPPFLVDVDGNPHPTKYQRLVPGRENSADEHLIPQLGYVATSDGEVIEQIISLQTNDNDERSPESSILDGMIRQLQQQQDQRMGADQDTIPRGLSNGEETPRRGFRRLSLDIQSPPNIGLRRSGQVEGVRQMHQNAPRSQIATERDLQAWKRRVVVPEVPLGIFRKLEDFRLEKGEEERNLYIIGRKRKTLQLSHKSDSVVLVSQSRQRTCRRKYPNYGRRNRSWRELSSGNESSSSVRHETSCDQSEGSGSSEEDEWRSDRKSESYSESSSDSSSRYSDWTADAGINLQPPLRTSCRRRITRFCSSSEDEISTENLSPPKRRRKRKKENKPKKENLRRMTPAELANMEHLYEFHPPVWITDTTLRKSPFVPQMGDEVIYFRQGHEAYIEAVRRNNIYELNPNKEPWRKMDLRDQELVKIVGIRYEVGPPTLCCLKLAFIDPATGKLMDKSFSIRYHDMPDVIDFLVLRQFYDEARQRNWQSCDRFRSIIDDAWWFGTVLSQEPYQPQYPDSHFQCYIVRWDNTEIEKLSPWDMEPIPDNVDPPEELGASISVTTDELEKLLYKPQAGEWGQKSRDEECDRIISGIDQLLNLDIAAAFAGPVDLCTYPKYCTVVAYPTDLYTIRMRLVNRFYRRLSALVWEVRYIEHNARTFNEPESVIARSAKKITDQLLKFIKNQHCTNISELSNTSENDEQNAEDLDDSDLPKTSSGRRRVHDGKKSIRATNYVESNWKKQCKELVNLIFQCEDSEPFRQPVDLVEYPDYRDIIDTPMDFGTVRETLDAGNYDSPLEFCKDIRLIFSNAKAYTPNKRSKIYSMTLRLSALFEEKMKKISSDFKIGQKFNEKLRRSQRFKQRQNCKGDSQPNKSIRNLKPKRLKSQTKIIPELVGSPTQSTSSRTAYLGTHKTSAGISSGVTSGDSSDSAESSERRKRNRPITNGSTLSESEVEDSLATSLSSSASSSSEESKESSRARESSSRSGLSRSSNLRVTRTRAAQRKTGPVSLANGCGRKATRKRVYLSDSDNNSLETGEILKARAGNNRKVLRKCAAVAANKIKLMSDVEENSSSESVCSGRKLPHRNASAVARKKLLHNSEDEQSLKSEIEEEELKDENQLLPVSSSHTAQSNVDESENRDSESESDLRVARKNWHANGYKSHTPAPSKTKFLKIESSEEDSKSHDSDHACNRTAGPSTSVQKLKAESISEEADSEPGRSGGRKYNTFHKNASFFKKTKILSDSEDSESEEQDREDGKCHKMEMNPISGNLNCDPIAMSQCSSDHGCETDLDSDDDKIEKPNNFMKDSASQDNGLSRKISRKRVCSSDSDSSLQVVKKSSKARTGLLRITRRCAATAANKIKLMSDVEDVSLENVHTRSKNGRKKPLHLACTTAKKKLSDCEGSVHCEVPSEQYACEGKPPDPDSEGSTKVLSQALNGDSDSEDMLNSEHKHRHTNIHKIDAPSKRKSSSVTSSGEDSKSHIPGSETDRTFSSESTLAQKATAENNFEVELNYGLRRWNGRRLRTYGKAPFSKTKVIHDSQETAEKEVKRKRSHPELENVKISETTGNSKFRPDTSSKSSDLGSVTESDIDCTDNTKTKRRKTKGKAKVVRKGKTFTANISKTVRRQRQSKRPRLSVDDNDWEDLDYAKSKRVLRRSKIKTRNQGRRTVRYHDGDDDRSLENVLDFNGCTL
Kelch-like protein 22. KLEIL22 (human), sequence (Q53GT1 2-634 limits assumed): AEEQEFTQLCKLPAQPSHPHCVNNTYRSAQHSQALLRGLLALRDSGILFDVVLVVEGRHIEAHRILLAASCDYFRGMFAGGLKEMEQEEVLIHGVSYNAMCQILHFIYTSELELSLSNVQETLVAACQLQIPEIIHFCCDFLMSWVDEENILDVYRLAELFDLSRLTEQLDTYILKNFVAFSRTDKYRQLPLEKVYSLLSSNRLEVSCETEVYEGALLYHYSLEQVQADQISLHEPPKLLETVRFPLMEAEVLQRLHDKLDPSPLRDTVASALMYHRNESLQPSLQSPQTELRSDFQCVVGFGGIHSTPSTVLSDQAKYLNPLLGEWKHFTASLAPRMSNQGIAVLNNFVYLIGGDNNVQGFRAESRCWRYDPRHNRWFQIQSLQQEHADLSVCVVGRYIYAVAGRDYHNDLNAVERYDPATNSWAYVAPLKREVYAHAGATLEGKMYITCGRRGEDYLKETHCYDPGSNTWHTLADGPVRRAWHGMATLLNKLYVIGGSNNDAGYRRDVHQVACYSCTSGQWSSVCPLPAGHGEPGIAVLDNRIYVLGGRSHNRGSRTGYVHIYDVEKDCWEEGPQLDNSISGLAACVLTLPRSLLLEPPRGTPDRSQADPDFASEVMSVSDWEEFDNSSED
WD repeat protein Anti homolog. WDR68 (human), sequence (P61962 whole entry): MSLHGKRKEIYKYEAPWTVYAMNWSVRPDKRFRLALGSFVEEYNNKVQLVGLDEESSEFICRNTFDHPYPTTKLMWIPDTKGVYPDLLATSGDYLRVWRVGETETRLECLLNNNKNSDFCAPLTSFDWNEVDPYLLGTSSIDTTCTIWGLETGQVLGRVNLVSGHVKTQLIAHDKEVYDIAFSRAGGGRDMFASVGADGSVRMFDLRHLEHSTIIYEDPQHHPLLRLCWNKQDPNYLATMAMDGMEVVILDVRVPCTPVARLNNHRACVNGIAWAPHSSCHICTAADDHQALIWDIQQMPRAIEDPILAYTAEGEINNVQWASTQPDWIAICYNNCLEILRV
Elongin C (human), sequence (Q15369 whole entry): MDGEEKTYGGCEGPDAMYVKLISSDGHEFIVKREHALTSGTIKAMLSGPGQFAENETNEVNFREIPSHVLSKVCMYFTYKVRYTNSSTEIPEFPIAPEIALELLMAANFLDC

Substance: Flag-SAKS1 (from UniProt Q04323 1-297)
- abundance factor (AF) [1]: 2.9
- sequence count [1]: 2
- spectrum count [1]: 2
- abundance factor (AF) [2]: 6.5
- sequence count [2]: 5
- spectrum count [2]: 7
- abundance factor (AF) [3]: 2.1
- sequence count [3]: 2
- spectrum count [3]: 2
- abundance factor (AF) [4]: 3.5
- sequence count [4]: 2
- spectrum count [4]: 3
- abundance factor (AF) [5]: 1.1
- sequence count [5]: 2
- spectrum count [5]: 2
- abundance factor (AF) [6]: 1.5
- sequence count [6]: 2
- spectrum count [6]: 3
- abundance factor (AF) [7]: 0.6
- sequence count [7]: 4
- spectrum count [7]: 7
- abundance factor (AF) [8]: 2.2
- sequence count [8]: 4
- spectrum count [8]: 5
- abundance factor (AF) [9]: 1.3
- sequence count [9]: 3
- spectrum count [9]: 6
- abundance factor (AF) [10]: 3.6
- sequence count [10]: 3
- spectrum count [10]: 6

Substance: Flag-UBXD7 (from UniProt O94888 1-489)
- abundance factor (AF) [11]: 2.2
- sequence count [11]: 3
- spectrum count [11]: 4
- abundance factor (AF) [12]: 2.1
- sequence count [12]: 2
- spectrum count [12]: 2
- abundance factor (AF) [13]: 1.4
- sequence count [13]: 2
- spectrum count [13]: 2
- abundance factor (AF) [14]: 9.8
- sequence count [14]: 5
- spectrum count [14]: 6
- sequence count [15]: 7
- spectrum count [15]: 9
- abundance factor (AF) [16]: 16
- sequence count [16]: 2
- spectrum count [16]: 2
- abundance factor (AF) [17]: 9.3
- sequence count [17]: 2
- spectrum count [17]: 3
- abundance factor (AF) [18]: 30.7
- sequence count [18]: 3
- spectrum count [18]: 4
- abundance factor (AF) [19]: 1.4
- sequence count [19]: 4
- spectrum count [19]: 4
- abundance factor (AF) [20]: 9.7
- sequence count [20]: 5
- spectrum count [20]: 7
- abundance factor (AF) [21]: 20
- sequence count [21]: 8
- spectrum count [21]: 10
- abundance factor (AF) [22]: 2.8
- sequence count [22]: 8
- spectrum count [22]: 8

Substance: Flag-UBXD8 (from UniProt Q96CS3 1-445)
- abundance factor (AF) [23]: 7
- sequence count [23]: 2
- spectrum count [23]: 5
- abundance factor (AF) [24]: 0.8
- spectrum count [24]: 3
- abundance factor (AF) [25]: 0.9
- sequence count [25]: 2
- spectrum count [25]: 2
- abundance factor (AF) [7]: 0.3
- sequence count [7]: 6
- spectrum count [7]: 6
- abundance factor (AF) [8]: 0.5
- sequence count [8]: 2
- spectrum count [8]: 2
- abundance factor (AF) [21]: 5.7
- sequence count [21]: 2
- spectrum count [21]: 3
- abundance factor (AF) [9]: 0.2
- sequence count [9]: 2
- spectrum count [9]: 2
- abundance factor (AF) [10]: 1.9
- sequence count [10]: 4
- spectrum count [10]: 6
- sequence count [26]: 7
- sequence coverage [26]: 29.4%
- spectrum count [26]: 82
